Assay results taken from patent publication US20240408220A1, “PEPTIDE DENDRONS AND METHODS OF USE THEREOF” (ASTRAZENECA AB, priority 2021, published 2024).
Where no end group is shown, it is not given here. [ ]: non-standard residue; d: D form. Cit = NC(=O)NCCC[C@H](N)C(=O)O

Assays:
[1] = Anionic stability assay (dextran sulfate dissociation of NPs); assay type: physicochemical
Description: Dextran sulfate (DS) solutions were prepared in 20 mM HEPES and added to NP solutions (prepared as in Example 4) so the final DS concentration was between […] and DNA concentration was 10 μg/mL. After a 15-minute decomplexation period, 15 μl of each formulation was added to a 2% E-gel with ethidium bromide and run for 10 minutes. pDNA release was calculated using ImageJ (NIH, Bethesda, Maryland) and the results shown in FIG. 2A where the percent of intact nanoparticles Is plotted as a function of DS concentration.

Cathepsin-B = Cathepsin-B (Homo sapiens, UniProt P07858); assay: Enzymatic DNA release from NPs by cathepsin-B; assay type: biochemical; conditions: relative to non-modified PD3 and all PD2 formulations
Description: NPs prepared as in Example 4 but in 8 mM L-Cysteine HCl buffer pH 6 at a final DNA concentration of 0.1 μg/μl. Cathepsin-B stock solution (60 units/mL) was subsequently added. Cat-B NP solutions were incubated at 37° C. for up to 4 hours. Aliquots were removed at the appropriate time points and analysed via agarose gel electrophoresis to visualize released DNA. DNA dilutions were prepared at different concentrations as a control and likewise added to the same agarose gel for subsequent quantification using bio-rad intensity software analysis and the results shown in FIG. 2B.

Row | Substance | dextran sulphate concentration above which DNA was readily released [1] | DNA release in response to cathepsin-B activity (Cathepsin-B)
1 | ({LEU}{ARG}8{LYS}{LEU}{ARG}4{LYS}{LEU}{ARG})2{LYS}{GLY}{VAL}{CIT}{GLY}{GLY}{SER}{CYS} (chain 1 LRKLRKLRKGV[Cit]GGSC-NH2; chain 2 LRKLRKLR; chain 3 LRKLR; also: branched dendron: side chains of K3, K6, K9 (chain 1) and K3, K6 (chain 2) amide-linked to other sequences, chain 2 C-terminus linked to another sequence) [PD1, comparison peptide dendron without modified lysines] | exceeding 50 μg/mL | –
2 | ({LYS(M)}{LEU}{ARG})8({LYS}{LYS(M)}{LEU}{ARG})4({LYS}{LYS(M)}{LEU}{ARG})2{LYS}{GLY}{VAL}{CIT}{GLY}{GLY}{SER}{CYS} (chain 1 K(2‑morpholinoacetyl)LRKK(2‑morpholinoacetyl)LRKK(2‑morpholinoacetyl)LRKGV[Cit]GGSC-NH2; chain 2 K(2‑morpholinoacetyl)LRKK(2‑morpholinoacetyl)LRKK(2‑morpholinoacetyl)LR; chain 3 K(2‑morpholinoacetyl)LRKK(2‑morpholinoacetyl)LR; also: branched dendron: side chains of K4, K8, K12 (chain 1) and K4, K8 (chain 2) amide-linked to other sequences) [PD3(M)] | – | readily released DNA in response to cathepsin-B activity
